# Results: patent publication US20250076314A1 (NORDIC BIOSCIENCE A S, published 2025)
# Where no end group is shown, it is not given here. The star is where a group is joined. Biotin = O=C1N[C@H]2[C@H](CS[C@H]2CCCCC(=O)*)N1
# T1: Nonsense coating peptide LHDSNPYPRR-K-Biotin
# T1 peptide: LHDSNPYPRRK(Biotin)
# T2: Truncated peptide IQWNAPQPS
# T2 construct: also called deselection peptide
# T2 peptide: IQWNAPQPS
# T3: Elongated peptide HPIQWNAPQPS
# T3 construct: also called deselection peptide
# T3 peptide: HPIQWNAPQPS
# T4: Nonsense peptide LHDSNPYPRR
# T4 construct: also called nonsense selection peptide; deselection peptide
# T4 peptide: LHDSNPYPRR
# T5: Coating peptide PIQWNAPQPS-K-Biotin (human)
# T5 construct: also called biotin-labelled peptide
# T5 peptide: PIQWNAPQPSK(Biotin)
# B1: FN-ANA monoclonal antibody (mAb raised against the FN-ANA neoepitope sequence …) (antibody, mouse IgG1, kappa, V domains shown)
# VH: QVQLQQSGAELVRPGASVKLSCKALGYTLTDYEMHWVKQTPVHGLEWIGAIHPGRGAAAYNQKFKDKATLTADKSSSTAYMELSSLTSEDSAVYYCTRSEEYGNYEDAMDYWGQGTSVTVSS
# VL: DVVMTQTPLSLPVSLGDQASISCRSSQSLVHSNGNTYLHWFLQKPGQSPKLLIYKVSNRFSGVPDRFSGSGSGTDFTLKISRVEAEDLGVYFCSQSTHVPYTFGGGTKLEIKR
# modifications: antibody labeled with HRP (site not stated)
# notes: Mouse IgG1/kappa from a hybridoma, purified and HRP-labelled for the assay; also called FN-ANA mAb; FN-ANA antibody
# B2: Selection peptide PIQWNAPQPS (peptide)
# peptide: PIQWNAPQPS
# notes: Synthetic peptide from Genscript
# Tests used:
# [1] = biological target: T1, Nonsense coating peptide …; assay: ELISA with the nonsense coating peptide on a streptavidin plate, colorimetric detection (OD 450 nm)
# [2] = biological target: T2, Truncated peptide IQWNAPQPS; assay: competitive ELISA, colorimetric detection (OD 450 nm), two-fold diluted peptides
# Method: (§1) No. 655995, Greiner Bio-one, Taufkirchen, Germany), whereafter it was incubated for 30 minutes at 20° C. with 300 RPM orbital shaking. After incubation, the plate was emptied and washed 5 times in washing buffer (consisting of 25 mM Tris, 3.0 g/L NaCl, 0.1% (w/v) Tween-20, pH 7.2). A 10-point calibration curve with 2-fold dilution was prepared from a start concentration of 200 ng/ml selection peptide ([…] (SEQ ID NO: 1)) in incubation buffer (50 mM TBS-BTB, 4.0 g/L NaCl, 0.20 g/L KCl, 5% Liquid II (cat. No. 11941836001, Roche), pH 8.0). 20 μL/well of standards, assay controls, and serum samples were added to appropriate wells in double determinations followed by the addition of 100 μL/well of 6 ng/ml of HRP-labelled mAb in incubation buffer, whereafter plates were incubated at 4° C. for 20 hours with 300 RPM orbital shaking. The following day, chemiluminescence substrate (cat. No. 11582950001, Roche Diagnostics) was prepared according to manufacturer's instructions and mixed by rotation in the dark for 20 minutes at room temperature prior to plate analysis. Following a washing step, 100 µL/well of chemiluminescence substrate was added, and the plate was incubated for a total of 3 minutes in darkness with 1 minute of 300 RPM orbital shaking before detection with luminescence on a SpectraMax i3x microplate reader (Molecular Devices, Sunnyvale CA, USA) at 1 second integration time at all wavelengths as microplate reader settings. […]
# (§2) Antibody specificity was evaluated using the synthetic peptides and determined as a percentage of signal inhibition of two-fold diluted selection and deselection peptides (elongated, truncated, and nonsense) in addition to a non-sense coating (peptide details are listed in Table 1) using a colorimetric detection method with 96-well streptavidin-coated microtiter plate (cat. No. 11940279, Roche Diagnostics, Hvidovre, Denmark) and using the above procedure with the following exceptions: Instead of adding chemiluminescent substrate, the colorimetric substrate 3,3′,5,5′-tetramethylbenzidine One (cat. […]
# [3] = biological target: T3, Elongated peptide HPIQWNAPQPS; assay: as above
# Method: as §1, §2
# [4] = biological target: T4, Nonsense peptide LHDSNPYPRR; assay: as above
# Method: as §1, §2
# [5] = biological target: T5, Coating peptide PIQWNAPQPS-K-Biotin; assay: competitive ELISA, colorimetric detection
# [6] = biological target: B2; assay: competitive ELISA, colorimetric detection
# [7] = biological target: B1; assay: competitive chemiluminescent ELISA, ten independent runs: selection peptide competes with plate-bound coating peptide …-K-biotin for HRP-labelled mAb; 20 h at 4 C
# Method: The final FN-ANA assay parameters were determined empirically by several optimizing experiments where various reagents, concentrations, incubation time and temperature were investigated in addition to testing reactivity to selection and deselection peptides (Table 1) and human sera. The final FN-ANA competitive ELISA procedure was conducted with chemiluminescence detection and determined as follows: 100 μL of 3 ng/ml coating peptide ([…]-K-biotin (SEQ ID NO: 5)) in coating buffer (50 mM tris-buffered saline (TBS) with 1% (w/v) bovine serum albumin, 0.1% (w/v) Tween-20, and 0.36% (v/v) Bronidox (BTB), 4 g/L NaCl, 0.20 g/L KCl, pH 8.0) was added to each well in a 96-well streptavidin-coated microtiter white plate (cat. No. 655995, Greiner Bio-one, Taufkirchen, Germany), whereafter it was incubated for 30 minutes at 20° C. with 300 RPM orbital shaking. After incubation, the plate was emptied and washed 5 times in washing buffer (consisting of 25 mM Tris, 3.0 g/L NaCl, 0.1% (w/v) Tween-20, pH 7.2). […] Following a washing step, 100 µL/well of chemiluminescence substrate was added, and the plate was incubated for a total of 3 minutes in darkness with 1 minute of 300 RPM orbital shaking before detection with luminescence on a SpectraMax i3x microplate reader (Molecular Devices, Sunnyvale CA, USA) at 1 second integration time at all wavelengths as microplate reader settings. […]
binding result [1],binding result [2],binding result [3],binding result [4],binding result [5],binding result [6],IC50 [7] [ng/mL],Binder
no binding,no binding,no binding,no binding,binds,binds,–,B1
–,–,–,–,–,–,8.86,B2
